Entries after “also recorded” stand apart in the source; their conditions may differ.
T1: Apo-3 (Homo sapiens, UniProt Q93038)
T1 construct: made in house
T1 sequence (Q93038 25-199 limits assumed): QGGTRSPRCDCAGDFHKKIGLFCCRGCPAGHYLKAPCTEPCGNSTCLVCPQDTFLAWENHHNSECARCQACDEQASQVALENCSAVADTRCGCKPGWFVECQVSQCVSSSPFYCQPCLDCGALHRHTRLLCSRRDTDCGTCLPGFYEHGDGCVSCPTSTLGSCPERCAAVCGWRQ

B1: p35: virus-derived caspase inhibitor, expressed from a transfected plasmid (protein, UniProt P08160 1-299, looked up)
Early 35 kDa protein: MCVIFPVEIDVSQTIIRDCQVDKQTRELVYINKIMNTQLTKPVLMMFNISGPIRSVTRKNNNLRDRIKSKVDEQFDQLERDYSDQMDGFHDSIKYFKDEHYSVSCQNGSVLKSKFAKILKSHDYTDKKSIEAYEKYCLPKLVDERNDYYVAVCVLKPGFENGSNQVLSFEYNPIGNKVIVPFAHEINDTGLYEYDVVAYVDSVQFDGEQFEEFVQSLILPSSFKNSEKVLYYNEASKNKSMIYKALEFTTESSWGKSEKYNWKIFCNGFIYDKKSKVLYVKLHNVTSALNKNVILNTIK
B2: soluble Apo-3 Ligand (protein)
chain: MGHHHHHHHHHHSSGHIDDDDKHMRASLSAQEPAQEELVAEEDQDPSELNPQTEESQDPAPFLNRLVRPRRSAPKGRKTRARRAIAAHYEVHPRPGQDGAQAGVDGTVSGWEEARINSSSPLRYNRQIGEFIVTRAGLYYLYCQVHFDEGKAVYLKLDLLVDGVLALRCLEEFSATAASSLGPQLRLCQVSGLLALRPGSSLRIRTLPWAHLKAAPFLTYFGLFQVH
B3: Apo-3 Ligand: Novel human TNF family polypeptide of 249 amino acids encoded by clone DNA30879-1152 (ATCC 209358) (protein)
chain: B2 chain

Assays:
MCF-7 cells = experiment: Apoptosis by soluble Apo-3 Ligand in MCF-7 cells transfected with caspase inhibitors or FADD mutant; assay type: cell-based, human; details: CHX 1 hour, soluble Apo-3 Ligand 2 μg/ml 14 hours, FIG. 9D
Description: MCF-7 cells were transfected by lipofection with empty vector (pRK5; EP 307,247) or with expression plasmid encoding the caspase inhibitors, p35 or CrmA, or a dominant-negative FADD mutant (Tularik, South San Francisco, Calif.). Sixteen hours later, the cells were pre-treated with CHX for 1 hour, and then treated for an additional 14 hours with soluble Apo-3 Ligand (2 μg/ml).

NF-κB [1] = experiment: NF-κB activation, electrophoretic mobility shift assay, HeLa cells; assay type: cell-based, human; details: FIG. 5A
Description: In a first assay, HeLa cells (ATCC CCL 22) were treated with His-tagged soluble Apo-3 Ligand (described in Example 3) (10 μg/ml) in duplicate or with vehicle for 30 minutes. His-tagged Apo-2 ligand (see WO 97/25428) or TNF-alpha (Pennica et al., Nature, 312:724-729 (1984)) were assayed for comparison. Nuclear extracts were prepared and 1 μg of nuclear protein was reacted with a ^32P-labelled NF-κB-specific synthetic oligonucleotide probe

[2] = system: HeLa S3 cervical carcinoma cells; experiment: Apoptosis in HeLa S3 cells (DNA fragmentation analysis); assay type: cell-based, human; details: HeLa S3 cells pre-treated with CHX, FIG. 9C
Description: HeLa S3 cervical carcinoma cells (ATCC CCL 2.2) were similarly pre-treated with CHX and then incubated with soluble Apo-3 Ligand (prepared as described in Example 3 above) alone or together with zVAD-fmk or DEVD-fmk (Research Biochemicals) (100 nM). The treated cells were then subjected to DNA fragmentation analysis.

[3] = system: MCF-7 breast carcinoma cells; experiment: Apoptosis in MCF-7 breast carcinoma cells (microscopy, Hoechst dye); assay type: cell-based, human; details: MCF-7 cells pre-treated with CHX 10 μg/ml, ligand 2 μg/ml, 14 hours, FIG. 9A
Description: Human MCF-7 breast carcinoma cells (ATCC HTB 22) were pre-treated for 1 hour with cyclohexamide (CHX) (10 μg/ml) and incubated for 14 hours with soluble Apo-3 Ligand (2 μg/ml; prepared as described in Example 3 above) alone or together with zVAD-fmk (Research Biochemicals) (100 nM). The cells were then stained with Hoechst dye and photographed by phase (FIG. 9A, left) and by fluorescence (FIG. 9A, right) microscopy. In FIG. 9A, arrowheads indicate some of the apoptotic cells (left) and their condensed nuclei (right).
In a separate experiment, the MCF-7 cells were pre-treated for 1 hour with buffer or CHX, incubated for an additional 14 hours with the indicated concentrations of soluble Apo-3 Ligand (see FIG. 9B), and apoptotic or live cells were score by microscopy.

NF-κB [4] = experiment: NF-κB activation, electrophoretic mobility shift assay, 293 cells; assay type: cell-based, human; details: 3 hours, FIG. 5B and 5C
[5] = system: Jun N-terminal kinase (JNK/SAPK); experiment: JNK/SAPK activity in 293 cells transfected with full length Apo-3 Ligand; assay type: cell-based, human; details: 293 cells transfected, FIG. 7
Description: The pRK5 plasmid encoding Apo-3 Ligand polypeptide or empty pRK5 plasmid (see Example 6 above) was transiently transfected into human 293 cells (ATCC CCL 1573) by calcium phosphate precipitation. Four hours later, one set of cells was treated with z-VAD-fmk (Research Biochemicals) (200 μM). Twenty hours later, the cells were harvested and analyzed for activity of Jun N-terminal kinase (JNK; also called stress activated protein kinase or SAPK) using a commercially available JNK/SAPK assay kit (New England Biolabs), and according to the manufacturer's instructions.

Apo-3 = molecular target: T1, Apo-3; experiment: Co-immunoprecipitation binding assay with Flag-tagged soluble Apo-3; details: ligand and receptor 1 μg/ml, FIG. 8A
Description: A binding assay was conducted to determine if Apo-3 Ligand binds Apo-3 receptor. Apo-3 receptor was described by Marsters et al., Curr. Biol., 6:750 (1996). Other investigators have also referred to Apo-3 as DR3 [Chinnayian et al., Science, 274:990 (1996)], Wsl-1 [Kitson et al., Nature, 384:372 (1996)], TRAMP [Bodmer et al., Immunity, 6:79 (1997)], or LARD [Screaton et al., PNAS, 94:4615-4619 (1997)].
(§1) A Flag-epitope tagged soluble Apo-3 was produced (as described for DR5 in Sheridan et al., Science, 277:818 (1997)) and tested in a co-immunoprecipitation assay to examine its ability to associate with a histidine tagged soluble Apo-3 Ligand (see Example 3 above). […] The respective ligands (1 μg/ml) and receptors (1 μg/ml) were incubated for 1 hour at room temperature. The reaction mixtures were subjected to precipitation with anti-Flag antibody conjugated to sepharose beads (Kodak) (FIG. 8A, left) or nickel-sepharose (Qiagen) (FIG. 8A, right) by overnight incubation at 4° C. according to manufacturer's instructions and resolved by gel electrophoresis. The ligands were visualized by Western blot analysis with nickel-conjugated horseradish peroxidase. In FIG. 8A, molecular weight markers (kDa) are indicated on the left.

HeLa cells = experiment: Apoptosis in HeLa cells transfected with full length Apo-3 Ligand (FACS, annexin V binding); assay type: cell-based, human; details: HeLa cells transfected with plasmid encoding amino acids 1 to 249, CD4-positive cells, FIG. 6
Description: A pRK5 plasmid (see EP 307,247) encoding Apo-3 Ligand polypeptide (amino acids 1 to 249 of FIG. 1), or empty pRK5 plasmid, was transiently transfected along with a pRK5 plasmid encoding human CD4 as a marker for transfection into human HeLa cells by electroporation, and the cells were plated in tissue culture dishes. Four hours later, the caspase inhibitor z-VAD-fmk (Research Biochemicals) (200 μM) was added to some of the dishes. Twenty hours later, apoptosis was determined by FACS analysis of cells positive for the CD4 marker by measuring binding of fluorescein isothiocyanate (FITC)-conjugated annexin V (Brand Applications) (see WO 97/25428).

DR5 = molecular target: T2, DR5 (Homo sapiens, UniProt O14763); experiment: Co-immunoprecipitation binding assay with DR5 ECD; details: ligand and receptor 1 μg/ml, FIG. 8A
T2 construct: the ECD of the Apo-2L receptor, DR5; made in house
T2 sequence (O14763 56-184 limits assumed): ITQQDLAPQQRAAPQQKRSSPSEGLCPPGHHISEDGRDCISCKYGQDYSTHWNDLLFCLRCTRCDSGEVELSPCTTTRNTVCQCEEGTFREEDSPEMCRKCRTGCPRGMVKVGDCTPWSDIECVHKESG
Description: as §1

Molecule	effect of transfection on induction of apoptosis by Apo-3 Ligand (MCF-7 cells)	NF-κB activation (NF-κB [1]; 10 μg/ml, 30 minutes)	level of NF-κB activation compared with Apo-2 ligand (NF-κB [1])	level of NF-κB activation compared with TNF-alpha (NF-κB [1])	apoptosis (internucleosomal DNA fragmentation) [2]	apoptosis (morphological changes and chromatin condensation) [3]	NF-κB activation (NF-κB [4])	level of JNK/SAPK activity compared with pRK5 control [5]	binding to Apo-3 (Apo-3)	binding to Apo-3 (Apo-3; listed as Apo-3L)	level of apoptosis compared with pRK5 (control) (HeLa cells)	binding to DR5 (DR5)
B1	blocked induction of apoptosis											
B2		induced significant NF-κB activation	comparable	weaker	induced marked apoptosis	induced marked apoptosis						
B3						induced apoptosis	NF-κB activation	detectable increase; also recorded: increased JNK/SAPK activity	bound to Apo-3	specifically binds to Apo-3	about a doubling of the level of apoptosis	not to DR5
